Data taken from US20240132578A1.
“And” between values parts separate entries of the source, which are not always exact repeats. Equal entries are not always repeated.

How the values were obtained:
Assay in all cases: cell-based or functional assay
[1] = biological target: HIV-1 Env of pseudovirus MGRM-C-26 (HIV-1)
[2] = biological target: HIV-1 Env of pseudovirus JRCSF (HIV-1) (UniProt P20871)
[3] = biological target: HIV-1 Env of pseudovirus 92TH021 (HIV-1)
[4] = biological target: HIV-1 Env of isolate MGRM-G-027 (subtype G), on pseudovirus (HIV-1)
[5] = biological target: HIV-1 Env of isolate MGRM-G-024 (subtype G), on pseudovirus (HIV-1)
[6] = biological target: HIV-1 Env of isolate 6535.3 (subtype B) (HIV-1)
[7] = biological target: HIV-1 Env of isolate APV 13 (subtype B) (HIV-1)
[8] = biological target: HIV-1 Env of isolate MGRM-G-028 (subtype G), on pseudovirus (HIV-1)
[9] = biological target: HIV-1 Env of isolate MGRM-G-011 (subtype G), on pseudovirus (HIV-1)
[10] = biological target: HIV-1 Env of isolate MGRM-G-014 (subtype G), on pseudovirus (HIV-1)
[11] = biological target: HIV-1 Env of isolate MGRM-G-006 (subtype G), on pseudovirus (HIV-1)
[12] = biological target: HIV-1 Env of isolate MGRM-G-019 (subtype G), on pseudovirus (HIV-1)
[13] = biological target: aMLV envelope, on pseudovirus (negative control)
[14] = biological target: HIV-1 Env of isolate MGRM-G-025 (subtype G), on pseudovirus (HIV-1)
[15] = biological target: HIV-1 Env of isolate MGRM-G-016 (subtype G), on pseudovirus (HIV-1)
[16] = biological target: HIV-1 Env of isolate MGRM-G-017 (subtype G), on pseudovirus (HIV-1)
[17] = biological target: HIV-1 Env of isolate APV 6 (subtype B) (HIV-1)
[18] = biological target: HIV-1 Env of isolate MGRM-G-013 (subtype G), on pseudovirus (HIV-1)
[19] = biological target: HIV-1 Env of isolate 93TH305 (subtype B) (HIV-1)
[20] = biological target: HIV-1 Env of isolate MGRM-G-015 (subtype G), on pseudovirus (HIV-1)
[21] = biological target: HIV-1 Env of isolate APV_17 (subtype B) (HIV-1)
[22] = biological target: HIV-1 Env of isolate MGRM-G-009 (subtype G), on pseudovirus (HIV-1)
[23] = biological target: HIV-1 Env of isolate MGRM-G-001 (subtype G), on pseudovirus (HIV-1)
[24] = biological target: HIV-1 Env of isolate MGRM-G-004 (subtype G), on pseudovirus (HIV-1)
[25] = biological target: HIV-1 Env of isolate 92BR020 (subtype B) (HIV-1)

B1: PGT-125 (B cell culture well 5123_A6) (antibody, V domains shown)
VH: QSQLQESGPRLVEASETLSLTCNVSGESTGACTYFWGWVRQAPGKGLEWIGSLSHCQSFWGSGWTFHNPSLKSRLTISLDTPKNQVFLKLTSLTAADTATYYCARFDGEVLVYNHWPKPAWVDLWGRGIPVTVSS
VL: QSALTQPPSASGSPGQSITISCNGTATNFVSWYQQFPDKAPKLIIFGVDKRPPGVPDRFSGSRSGTTASLTVSRLQTDDEAVYYCGSLVGNWDVIFGGGTTLTVL
Binder B1 has a Polyclonal Transfectant Neutralization Index [1] of 88.3, a Primary Neutralization Index (B cell culture supernatant) [1] of 512 and a Polyclonal Transfectant Neutralization Index [2] of 119. For the same binder, the Primary Neutralization Index (B cell culture supernatant) [2] was 1730, the Polyclonal Transfectant Neutralization Index [3] was 50.6 and the Primary Neutralization Index (B cell culture supernatant) [3] was 133.

B2: PGT-126 (B cell culture well 5141_B17) (antibody, V domains shown)
VH: QPQLQESGPGLVEASETLSLTCTVSGDSTAACDYFWGWVRQPPGKGLEWIGGLSHCAGYYNTGWTYHNPSLKSRLTISLDTPKNQVFLKLNSVTAADTAIYYCARFDGEVLVYHDWPKPAWVDLWGRGTLVTVSS
VL: QSALTQPPSASGSPGQSISISCTGTSNRFVSWYQQHPGKAPKLVIYGVNKRPSGVPDRFSGSKSGNTASLTVSGLQTDDEAVYYCSSLVGNWDVIFGGGTKLTVL
B2 was tested, and the Polyclonal Transfectant Neutralization Index [1] was 102, the Primary Neutralization Index (B cell culture supernatant) [1] was 654 and the Polyclonal Transfectant Neutralization Index [2] was 102. For the same binder, the Primary Neutralization Index (B cell culture supernatant) [2] was 1410, the Polyclonal Transfectant Neutralization Index [3] was 2.74 and the Primary Neutralization Index (B cell culture supernatant) [3] was 2.3.

B3: PGT-128 (B cell culture well 5114_A19) (antibody, V domains shown)
VH: QPQLQESGPTLVEASETLSLTCAVSGDSTAACNSFWGWVRQPPGKGLEWVGSLSHCASYWNRGWTYHNPSLKSRLTLALDTPKNLVFLKLNSVTAADTATYYCARFGGEVLRYTDWPKPAWVDLWGRGTLVTVSS
VL: QSALTQPPSASGSPGQSITISCTGTSNNFVSWYQQHAGKAPKLVIYDVNKRPSGVPDRFSGSKSGNTASLTVSGLQTDDEAVYYCGSLVGNWDVIFGGGTKLTVL
B3 gave a Polyclonal Transfectant Neutralization Index [1] of 32.2, a Primary Neutralization Index (B cell culture supernatant) [1] of 17.1 and a Polyclonal Transfectant Neutralization Index [2] of 136. It also gave a Primary Neutralization Index (B cell culture supernatant) [2] of 77.5, a Polyclonal Transfectant Neutralization Index [3] of 10 and a Primary Neutralization Index (B cell culture supernatant) [3] of 6.6.

B4: PGT-127 (B cell culture well 5145_B14) (antibody, V domains shown)
VH: QPQLQESGPGLVEASETLSLTCTVSGDSTGRCNYFWGWVRQPPGKGLEWIGSLSHCRSYYNTDWTYHNPSLKSRLTISLDTPKNQVFLRLTSVTAADTATYYCARFGGEVLVYRDWPKPAWVDLWGRGTLVVTVS
VL: QSALTQPPSASGSPGQSITISCTGTSNNFVSWYQQYPGKAPKLVIYEVNKRPSGVPDRFSGSKSGSTASLTVSGLQADDEGVYYCSSLVGNWDVIFGGGTKLTVL
For B4, the Polyclonal Transfectant Neutralization Index [1] was 2.62, the Primary Neutralization Index (B cell culture supernatant) [1] was 86.9 and the Polyclonal Transfectant Neutralization Index [2] was 1.61. It also gave a Primary Neutralization Index (B cell culture supernatant) [2] of 31.1, a Polyclonal Transfectant Neutralization Index [3] of 0.94 and a Primary Neutralization Index (B cell culture supernatant) [3] of 1.

B5: PGT-135 (B cell culture wells 5343_B8 and 5344_E16) (antibody, V domains shown)
VH: QLQMQESGPGLVKPSETLSLSCTVSGDSIRGGEWGDKDYHWGWVRHSAGKGLEWIGSIHWRGTTHYKESLRRRVSMSIDTSRNWFSLRLASVTAADTAVYFCARHRHHDVFMLVPIAGWFDVWGPGVQVTVSS
VL: EIVMTQSPDTLSVSPGETVTLSCRASQNINKNLAWYQYKPGQSPRLVIFETYSKIAAFPARFVASGSGTEFTLTINNMQSEDVAVYYCQQYEEWPRTFGQGTKVDIK
For B5, the Primary Neutralization Index (B cell culture supernatant) [1] was 6.5 and 3.6 and the Primary Neutralization Index (B cell culture supernatant) [2] was 1.8 and 1.5.

B6: PGT-136 (antibody, V domains shown)
VH: QLQLQESGPGLVKPSETLSLTCTVSGGSMRGTDWGENDFHYGWIRQSSAKGLEWIGSIHWRGRTTHYKTSFRSRATLSIDTSNNRFSLTFSFVTAADTAVYYCARHKYHDIFRVVPVAGWFDPWGQGLLVTVSS
VL: EIVMTQSPPTLSVSPGETATLSCRASQNVKNNLAWYQLKPGQAPRLLIFDASSRAGGIPDRFSGSGYGTDFTLTVNSVQSEDFGDYFCQQYEEWPRTFGQGTKVDIK
With B6 the IC50 (µg/mL), neutralization of pseudovirus [4] was 45.2 µg/mL, the IC50 (µg/mL), neutralization of pseudovirus [5] was 0.152 µg/mL and the IC50 (µg/mL), pseudovirus neutralization [6] was > 50 µg/mL. For the same binder, the IC50 (µg/mL), pseudovirus neutralization [7] was > 50 µg/mL, the IC50 (µg/mL), neutralization of pseudovirus [8] was > 50 µg/mL and the IC50 (µg/mL), neutralization of pseudovirus [9] was > 50 µg/mL. For the same binder, the IC50 (µg/mL), neutralization of pseudovirus [10] was > 50 µg/mL, the IC50 (µg/mL), neutralization of pseudovirus [11] was > 50 µg/mL and the IC50 (µg/mL), neutralization of pseudovirus [12] was 44.3 µg/mL. The IC50 (µg/mL), neutralization of pseudovirus [13] was > 50 µg/mL, the IC50 (µg/mL), neutralization of pseudovirus [14] was > 50 µg/mL and the IC50 (µg/mL), neutralization of pseudovirus [15] was > 50 µg/mL. The IC50 (µg/mL), neutralization of pseudovirus [16] was > 50 µg/mL, the IC50 (µg/mL), pseudovirus neutralization [17] was > 50 µg/mL and the IC50 (µg/mL), neutralization of pseudovirus [18] was > 50 µg/mL. For the same binder, the IC50 (µg/mL), pseudovirus neutralization [19] was 20.2 µg/mL, the IC50 (µg/mL), neutralization of pseudovirus [20] was > 50 µg/mL and the IC50 (µg/mL), pseudovirus neutralization [21] was > 50 µg/mL. For the same binder, the IC50 (µg/mL), neutralization of pseudovirus [22] was > 50 µg/mL, the IC50 (µg/mL), neutralization of pseudovirus [23] was 8.11 µg/mL and the IC50 (µg/mL), neutralization of pseudovirus [24] was > 50 µg/mL. The IC50 (µg/mL), pseudovirus neutralization [25] was 8.61 µg/mL.

B7: PGT-130 (B cell culture well 5147_N6) (antibody, V domains shown)
VH: QVQLQESGPGLVKPAETLSLTCSVSGESINTGHYYWGWVRQVPGKGLEWIGHIHYTTAVLHNPSLKSRLTIKIYTLRNQITLRLSNVTAADTAVYHCVRSGGDILYYYEWQKPHWFSPWGPGIHVTVSS
VL: QSALTQPPSASGSLGQSVTISCNGTSSDIGGWNFVSWYQQFPGRAPRLIIFEVNKRPSGVPGRFSGSKSGNSASLTVSGLQSDDEGQYFCSSLFGRWDVVFGGGTKLTVL
B7 showed a Polyclonal Transfectant Neutralization Index [1] of 1.05, a Primary Neutralization Index (B cell culture supernatant) [1] of 3 and a Polyclonal Transfectant Neutralization Index [2] of 1.24. The Primary Neutralization Index (B cell culture supernatant) [2] was 19.3, the Polyclonal Transfectant Neutralization Index [3] was 4.2 and the Primary Neutralization Index (B cell culture supernatant) [3] was 538.

B8: PGT-131 (B cell culture well 5136_H1) (antibody, V domains shown)
VH: QVQLQESGPGLVKPSETLSLTCTVSGDSINTGHHYWGWVRQVPGKGPEWIAHIHYNTAVLHNPALKSRVTISIFTLKNLITLSLSNVTAADTAVYFCVRSGGDILYYIEWQKPHWFYPWGPGILVTVSS
VL: QSALTQPPSASGSLGQSLTISCSGTGSDIGSWNFVSWYQQFPGRAPNLIIFEVNRRRSGVPDRFSGSKSGNTASLTVSGLRSEDEAEYFCSSLSGRWDIVFGGGTKVTVL
Work on B8 yielded a Primary Neutralization Index (B cell culture supernatant) [1] of 1.2, a Primary Neutralization Index (B cell culture supernatant) [2] of 6.2 and a Primary Neutralization Index (B cell culture supernatant) [3] of 354.

B9: PGT-131 (antibody, V domains shown)
VH: QVQLQESGPGLVKPSETLSLTCTVSGDSINTGHHYWGWVRQVPGKGPEWIAHIHYNTAVLHNPALKSRVTISIFTLKNLITLSLSNVTAADTAVYFCVRSGGDILYYIEWQKPHWFYPWGPGILVTVSS
VL: QSALTQPPSASGSLGQSLTISCSGTGSDIGSWNFVSWYQQFPGRAPNLIIFEVNRRRSGVPDRFSGSKSGNTASLTVSGLRSEDEAEYFCSSLSGRWDIVFGGGTKVTVL
For B9, the IC50 (µg/mL), neutralization of pseudovirus [4] was 2.9 µg/mL, the IC50 (µg/mL), neutralization of pseudovirus [5] was 10.7 µg/mL and the IC50 (µg/mL), pseudovirus neutralization [6] was 0.056 µg/mL. For the same binder, the IC50 (µg/mL), pseudovirus neutralization [7] was 0.189 µg/mL, the IC50 (µg/mL), neutralization of pseudovirus [8] was 0.466 µg/mL and the IC50 (µg/mL), neutralization of pseudovirus [9] was > 50 µg/mL. The IC50 (µg/mL), neutralization of pseudovirus [10] was 4.31 µg/mL, the IC50 (µg/mL), neutralization of pseudovirus [11] was > 50 µg/mL and the IC50 (µg/mL), neutralization of pseudovirus [12] was > 50 µg/mL. For the same binder, the IC50 (µg/mL), neutralization of pseudovirus [13] was > 50 µg/mL, the IC50 (µg/mL), neutralization of pseudovirus [14] was 7.75 µg/mL and the IC50 (µg/mL), neutralization of pseudovirus [15] was > 50 µg/mL. For the same binder, the IC50 (µg/mL), neutralization of pseudovirus [16] was > 50 µg/mL, the IC50 (µg/mL), pseudovirus neutralization [17] was > 50 µg/mL and the IC50 (µg/mL), neutralization of pseudovirus [18] was > 50 µg/mL. The IC50 (µg/mL), pseudovirus neutralization [19] was 0.016 µg/mL, the IC50 (µg/mL), neutralization of pseudovirus [20] was > 50 µg/mL and the IC50 (µg/mL), pseudovirus neutralization [21] was > 50 µg/mL. The IC50 (µg/mL), neutralization of pseudovirus [22] was > 50 µg/mL, the IC50 (µg/mL), neutralization of pseudovirus [23] was 0.404 µg/mL and the IC50 (µg/mL), neutralization of pseudovirus [24] was > 50 µg/mL. The IC50 (µg/mL), pseudovirus neutralization [25] was 6.16 µg/mL.
